Ends that are not written are not given here.
Each binder was assayed against T1, Fc-tagged 2019-nCoV RBD-SD1 (SARS-CoV-2 (2019-nCoV), UniProt P0DTC2 319-591) (assay: BLI). Conditions: both partners purified.
T1 construct: source: bought: Sanyou Biopharmaceuticals Co. Ltd

Binder	Kd [nM]
SALEEQYKTFLDKFMHELEDLLYQLAL (designed binder, also called peptide P10; source: synthetic peptide (solid-phase synthesis on rink amide resin, HPLC purified)) [P10]	0.03 ± 0.01
SALEEQLKTFLDKFMHELEDLLYQLAL-NH2 (designed binder, also called peptide P8) [P8]	24 ± 11
SALEEQYKTFLDKFMHELEDLLYQLSL (designed binder, also called peptide P9) [P9]	0.09 ± 0.08
